Assay results from patent US9616106 (NEUMEDICINES, dated 2017).

Key:
Test in all cases: cell-based or functional assay
[1] = target: murine IL-12 receptor on mouse CD14- PBMC (mouse) (UniProt P97378)
[2] = target: rat IL-12 receptor on rat PBMC (rat)
[3] = target: human IL-12 receptor on human CD14- PBMC (human, UniProt Q99665 24-862)
Chain of human IL-12 receptor on human CD14- PBMC (Q99665 24-862): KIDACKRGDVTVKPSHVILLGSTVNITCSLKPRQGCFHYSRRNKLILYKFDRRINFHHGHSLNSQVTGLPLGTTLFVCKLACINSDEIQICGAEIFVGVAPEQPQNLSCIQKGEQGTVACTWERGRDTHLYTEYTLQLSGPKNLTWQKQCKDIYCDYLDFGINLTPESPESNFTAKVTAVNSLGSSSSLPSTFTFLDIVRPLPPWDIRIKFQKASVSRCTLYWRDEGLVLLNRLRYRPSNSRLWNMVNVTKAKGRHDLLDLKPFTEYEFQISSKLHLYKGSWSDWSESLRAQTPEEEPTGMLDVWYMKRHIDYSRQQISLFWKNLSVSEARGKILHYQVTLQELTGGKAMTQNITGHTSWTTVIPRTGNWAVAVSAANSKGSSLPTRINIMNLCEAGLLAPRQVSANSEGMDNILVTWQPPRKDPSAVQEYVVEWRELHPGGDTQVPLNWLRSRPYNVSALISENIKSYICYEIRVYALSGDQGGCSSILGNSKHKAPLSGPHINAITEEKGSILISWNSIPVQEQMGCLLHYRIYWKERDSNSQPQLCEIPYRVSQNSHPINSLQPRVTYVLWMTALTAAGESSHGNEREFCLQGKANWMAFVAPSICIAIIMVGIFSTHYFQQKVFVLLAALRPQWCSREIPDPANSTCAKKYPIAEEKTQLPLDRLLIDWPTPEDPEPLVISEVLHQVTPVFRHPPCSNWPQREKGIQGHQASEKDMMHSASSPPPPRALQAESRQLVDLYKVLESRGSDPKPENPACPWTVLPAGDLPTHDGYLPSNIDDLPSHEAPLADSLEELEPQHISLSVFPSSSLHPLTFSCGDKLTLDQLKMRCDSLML

Chain of murine IL-12 receptor on mouse CD14- PBMC (mouse) (P97378 24-874): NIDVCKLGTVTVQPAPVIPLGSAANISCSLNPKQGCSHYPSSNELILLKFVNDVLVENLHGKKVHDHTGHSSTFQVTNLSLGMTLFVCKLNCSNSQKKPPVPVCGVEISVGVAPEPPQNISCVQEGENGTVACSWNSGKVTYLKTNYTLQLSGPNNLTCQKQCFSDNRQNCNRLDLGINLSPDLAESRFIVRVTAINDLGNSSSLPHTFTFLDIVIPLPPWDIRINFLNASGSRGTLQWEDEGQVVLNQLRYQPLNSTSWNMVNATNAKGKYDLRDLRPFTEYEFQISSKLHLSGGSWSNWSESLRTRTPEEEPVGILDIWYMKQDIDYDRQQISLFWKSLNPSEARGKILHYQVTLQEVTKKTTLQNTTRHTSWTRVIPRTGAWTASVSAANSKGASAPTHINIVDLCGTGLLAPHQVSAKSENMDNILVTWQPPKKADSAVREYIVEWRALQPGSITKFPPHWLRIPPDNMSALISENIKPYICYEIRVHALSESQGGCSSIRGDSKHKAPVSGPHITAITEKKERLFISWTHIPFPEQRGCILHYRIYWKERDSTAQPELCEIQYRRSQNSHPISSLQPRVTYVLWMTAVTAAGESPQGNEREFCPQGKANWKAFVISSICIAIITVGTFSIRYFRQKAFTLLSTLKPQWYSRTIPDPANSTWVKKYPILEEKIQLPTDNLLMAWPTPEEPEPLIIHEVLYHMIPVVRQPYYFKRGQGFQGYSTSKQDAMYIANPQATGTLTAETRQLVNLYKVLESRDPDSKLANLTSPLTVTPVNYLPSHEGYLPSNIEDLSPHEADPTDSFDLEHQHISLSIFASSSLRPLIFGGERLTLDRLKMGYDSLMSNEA

EC50 for stimulating IFN-γ secretion from PBMC (ELISA) [1]: > 1000 pM | EC50 for stimulating IFN-γ secretion from PBMC (ELISA) [2]: > 1000 pM | EC50 for stimulating IFN-γ secretion from CD14- PBMC (ELISA, 16 hours) [3]: 2.51 pM
B1: recombinant human IL-12 (ligand)
chain 1: RNLPVATPDPGMFPCLHHSQNLLRAVSNMLQKARQTLEFYPCTSEEIDHEDITKDKTSTVEACLPLELTKNESCLNSRETSFITNGSCLASRKTSFMMALCLSSIYEDLKMYQVEFKTMNAKLLMDPKRQIFLDQNMLAVIDELMQALNFNSETVPQKSSLEEPDFYKTKIKLCILLHAFRIRAVTIDRVMSYLNAS
chain 2: IWELKKDVYVVELDWYPDAPGEMVVLTCDTPEEDGITWTLDQSSEVLGSGKTLTIQVKEFGDAGQYTCHKGGEVLSHSLLLLHKKEDGIWSTDILKDQKEPKNKTFLRCEAKNYSGRFTCWWLTTISTDLTFSVKSSRGSSDPQGVTCGAATLSAERVRGDNKEYEYSVECQEDSACPAAEESLPIEVMVDAVHKLKYENYTSSFFIRDIIKPDPPKNLQLKPLKNSRQVEVSWEYPDTWSTPHSYFSLTFCVQVQGKSKREKKDRVFTDKTSATVICRKNASISVRAQDRYYSSSWSEWASVPCS
modifications: glycosylated (produced in CHO cells)
